Assay results taken from paper PMC9135631 (2022).

B1: Latrophilin-3 ADHD-related variant R465S (Lphn3^R465S) (receptor)
chain: MWPSQLLIFMMLLAPIIHAFSRAPIPMAVVRRELSCESYPIELRCPGTDVIMIESANYGRTDDKICDSDPAQMENIRCYLPDAYKIMSQRCNNRTQCAVVAGPDVFPDPCPGTYKYLEVQYECVPYKVEQKVFLCPGLLKGVYQSEHLFESDHQSGAWCKDPLQASDKIYYMPWTPYRTDTLTEYSSKDDFIAGRPTTTYKLPHRVDGTGFVVYDGALFFNKERTRNIVKFDLRTRIKSGEAIIANANYHDTSPYRWGGKSDIDLAVDENGLWVIYATEQNNGKIVISQLNPYTLRIEGTWDTAYDKRSASNAFMICGILYVVKSVYEDDDNEATGNKIDYIYNTDQSKDSLVDVPFPNSYQYIAAVDYNPRDNLLYVWNNYHVVKYSLDFGPLDSRSGQAHHGQVSYISPPIHLDSELERPSVKDISTTGPLGMGSTTTSTTLRTTTLSPGRSTTPSVSGRRNSSTSTPSPAVEVLDDMTTHLPSASSQIPALEESCEAVEAREIMWFKTRQGQIAKQPCPAGTIGVSTYLCLAPDGIWDPQGPDLSNCSSPWVNHITQKLKSGETAANIARELAEQTRNHLNAGDITYSVRAMDQLVGLLDVQLRNLTPGGKDSAARSLNKLQKRERSCRAYVQAMVETVNNLLQPQALNAWRDLTTSDQLRAATMLLHTVEESAFVLADNLLKTDIVRENTDNIKLEVARLSTEGNLEDLKFPENMGHGSTIQLSANTLKQNGRNGEIRVAFVLYNNLGPYLSTENASMKLGTEALSTNHSVIVNSPVITAAINKEFSNKVYLADPVVFTVKHIKQSEENFNPNCSFWSYSKRTMTGYWSTQGCRLLTTNKTHTTCSCNHLTNFAVLMAHVEVKHSDAVHDLLLDVITWVGILLSLVCLLICIFTFCFFRGLQSDRNTIHKNLCISLFVAELLFLIGINRTDQPIACAVFAALLHFFFLAAFTWMFLEGVQLYIMLVEVFESEHSRRKYFYLVGYGMPALIVAVSAAVDYRSYGTDKVCWLRLDTYFIWSFIGPATLIIMLNVIFLGIALYKMFHHTAILKPESGCLDNINYEDNRPFIKSWVIGAIALLCLLGLTWAFGLMYINESTVIMAYLFTIFNSLQGMFIFIFHCVLQKKVRKEYGKCLRTHCCSGKSTESSIGSGKTSGSRTPGRYSTGSQSRIRRMWNDTVRKQSESSFITGDINSSASLNREPYRETSMGVKLNIAYQIGASEQCQGYKCHGYSTTEW
B2: Latrophilin-3 ADHD-related variant A247S (Lphn3^A247S) (receptor)
chain: MWPSQLLIFMMLLAPIIHAFSRAPIPMAVVRRELSCESYPIELRCPGTDVIMIESANYGRTDDKICDSDPAQMENIRCYLPDAYKIMSQRCNNRTQCAVVAGPDVFPDPCPGTYKYLEVQYECVPYKVEQKVFLCPGLLKGVYQSEHLFESDHQSGAWCKDPLQASDKIYYMPWTPYRTDTLTEYSSKDDFIAGRPTTTYKLPHRVDGTGFVVYDGALFFNKERTRNIVKFDLRTRIKSGEAIIANSNYHDTSPYRWGGKSDIDLAVDENGLWVIYATEQNNGKIVISQLNPYTLRIEGTWDTAYDKRSASNAFMICGILYVVKSVYEDDDNEATGNKIDYIYNTDQSKDSLVDVPFPNSYQYIAAVDYNPRDNLLYVWNNYHVVKYSLDFGPLDSRSGQAHHGQVSYISPPIHLDSELERPSVKDISTTGPLGMGSTTTSTTLRTTTLSPGRSTTPSVSGRRNRSTSTPSPAVEVLDDMTTHLPSASSQIPALEESCEAVEAREIMWFKTRQGQIAKQPCPAGTIGVSTYLCLAPDGIWDPQGPDLSNCSSPWVNHITQKLKSGETAANIARELAEQTRNHLNAGDITYSVRAMDQLVGLLDVQLRNLTPGGKDSAARSLNKLQKRERSCRAYVQAMVETVNNLLQPQALNAWRDLTTSDQLRAATMLLHTVEESAFVLADNLLKTDIVRENTDNIKLEVARLSTEGNLEDLKFPENMGHGSTIQLSANTLKQNGRNGEIRVAFVLYNNLGPYLSTENASMKLGTEALSTNHSVIVNSPVITAAINKEFSNKVYLADPVVFTVKHIKQSEENFNPNCSFWSYSKRTMTGYWSTQGCRLLTTNKTHTTCSCNHLTNFAVLMAHVEVKHSDAVHDLLLDVITWVGILLSLVCLLICIFTFCFFRGLQSDRNTIHKNLCISLFVAELLFLIGINRTDQPIACAVFAALLHFFFLAAFTWMFLEGVQLYIMLVEVFESEHSRRKYFYLVGYGMPALIVAVSAAVDYRSYGTDKVCWLRLDTYFIWSFIGPATLIIMLNVIFLGIALYKMFHHTAILKPESGCLDNINYEDNRPFIKSWVIGAIALLCLLGLTWAFGLMYINESTVIMAYLFTIFNSLQGMFIFIFHCVLQKKVRKEYGKCLRTHCCSGKSTESSIGSGKTSGSRTPGRYSTGSQSRIRRMWNDTVRKQSESSFITGDINSSASLNREPYRETSMGVKLNIAYQIGASEQCQGYKCHGYSTTEW
B3: Latrophilin-3 ADHD-related variant D615N (Lphn3^D615N) (receptor)
chain: MWPSQLLIFMMLLAPIIHAFSRAPIPMAVVRRELSCESYPIELRCPGTDVIMIESANYGRTDDKICDSDPAQMENIRCYLPDAYKIMSQRCNNRTQCAVVAGPDVFPDPCPGTYKYLEVQYECVPYKVEQKVFLCPGLLKGVYQSEHLFESDHQSGAWCKDPLQASDKIYYMPWTPYRTDTLTEYSSKDDFIAGRPTTTYKLPHRVDGTGFVVYDGALFFNKERTRNIVKFDLRTRIKSGEAIIANANYHDTSPYRWGGKSDIDLAVDENGLWVIYATEQNNGKIVISQLNPYTLRIEGTWDTAYDKRSASNAFMICGILYVVKSVYEDDDNEATGNKIDYIYNTDQSKDSLVDVPFPNSYQYIAAVDYNPRDNLLYVWNNYHVVKYSLDFGPLDSRSGQAHHGQVSYISPPIHLDSELERPSVKDISTTGPLGMGSTTTSTTLRTTTLSPGRSTTPSVSGRRNRSTSTPSPAVEVLDDMTTHLPSASSQIPALEESCEAVEAREIMWFKTRQGQIAKQPCPAGTIGVSTYLCLAPDGIWDPQGPDLSNCSSPWVNHITQKLKSGETAANIARELAEQTRNHLNAGDITYSVRAMDQLVGLLDVQLRNLTPGGKNSAARSLNKLQKRERSCRAYVQAMVETVNNLLQPQALNAWRDLTTSDQLRAATMLLHTVEESAFVLADNLLKTDIVRENTDNIKLEVARLSTEGNLEDLKFPENMGHGSTIQLSANTLKQNGRNGEIRVAFVLYNNLGPYLSTENASMKLGTEALSTNHSVIVNSPVITAAINKEFSNKVYLADPVVFTVKHIKQSEENFNPNCSFWSYSKRTMTGYWSTQGCRLLTTNKTHTTCSCNHLTNFAVLMAHVEVKHSDAVHDLLLDVITWVGILLSLVCLLICIFTFCFFRGLQSDRNTIHKNLCISLFVAELLFLIGINRTDQPIACAVFAALLHFFFLAAFTWMFLEGVQLYIMLVEVFESEHSRRKYFYLVGYGMPALIVAVSAAVDYRSYGTDKVCWLRLDTYFIWSFIGPATLIIMLNVIFLGIALYKMFHHTAILKPESGCLDNINYEDNRPFIKSWVIGAIALLCLLGLTWAFGLMYINESTVIMAYLFTIFNSLQGMFIFIFHCVLQKKVRKEYGKCLRTHCCSGKSTESSIGSGKTSGSRTPGRYSTGSQSRIRRMWNDTVRKQSESSFITGDINSSASLNREPYRETSMGVKLNIAYQIGASEQCQGYKCHGYSTTEW
B4: Latrophilin-3 ADHD-related variant T783M (Lphn3^T783M) (receptor)
chain: MWPSQLLIFMMLLAPIIHAFSRAPIPMAVVRRELSCESYPIELRCPGTDVIMIESANYGRTDDKICDSDPAQMENIRCYLPDAYKIMSQRCNNRTQCAVVAGPDVFPDPCPGTYKYLEVQYECVPYKVEQKVFLCPGLLKGVYQSEHLFESDHQSGAWCKDPLQASDKIYYMPWTPYRTDTLTEYSSKDDFIAGRPTTTYKLPHRVDGTGFVVYDGALFFNKERTRNIVKFDLRTRIKSGEAIIANANYHDTSPYRWGGKSDIDLAVDENGLWVIYATEQNNGKIVISQLNPYTLRIEGTWDTAYDKRSASNAFMICGILYVVKSVYEDDDNEATGNKIDYIYNTDQSKDSLVDVPFPNSYQYIAAVDYNPRDNLLYVWNNYHVVKYSLDFGPLDSRSGQAHHGQVSYISPPIHLDSELERPSVKDISTTGPLGMGSTTTSTTLRTTTLSPGRSTTPSVSGRRNRSTSTPSPAVEVLDDMTTHLPSASSQIPALEESCEAVEAREIMWFKTRQGQIAKQPCPAGTIGVSTYLCLAPDGIWDPQGPDLSNCSSPWVNHITQKLKSGETAANIARELAEQTRNHLNAGDITYSVRAMDQLVGLLDVQLRNLTPGGKDSAARSLNKLQKRERSCRAYVQAMVETVNNLLQPQALNAWRDLTTSDQLRAATMLLHTVEESAFVLADNLLKTDIVRENTDNIKLEVARLSTEGNLEDLKFPENMGHGSTIQLSANTLKQNGRNGEIRVAFVLYNNLGPYLSTENASMKLGTEALSTNHSVIVNSPVIMAAINKEFSNKVYLADPVVFTVKHIKQSEENFNPNCSFWSYSKRTMTGYWSTQGCRLLTTNKTHTTCSCNHLTNFAVLMAHVEVKHSDAVHDLLLDVITWVGILLSLVCLLICIFTFCFFRGLQSDRNTIHKNLCISLFVAELLFLIGINRTDQPIACAVFAALLHFFFLAAFTWMFLEGVQLYIMLVEVFESEHSRRKYFYLVGYGMPALIVAVSAAVDYRSYGTDKVCWLRLDTYFIWSFIGPATLIIMLNVIFLGIALYKMFHHTAILKPESGCLDNINYEDNRPFIKSWVIGAIALLCLLGLTWAFGLMYINESTVIMAYLFTIFNSLQGMFIFIFHCVLQKKVRKEYGKCLRTHCCSGKSTESSIGSGKTSGSRTPGRYSTGSQSRIRRMWNDTVRKQSESSFITGDINSSASLNREPYRETSMGVKLNIAYQIGASEQCQGYKCHGYSTTEW

The binders below were run against 8xHis-tagged Teneurin-2 extracellular domain (Ten2^ECD-His) (UniProt Q9NT68 401-2774, HA/Flag epitopes left out; isoform assumed; signal peptide removed and GPS autoproteolysis expected).

Binder	Kd
B1	1.06 nM
B2	1.15 nM
B3	0.896 nM
B4	0.756 nM
